Experimental data taken from US20070066521, “Short RNA-binding proteins” (published 2007).

How the values were obtained:
S-AC4 (SLCMV AC4) [1] = molecular target: T1, S-AC4 (SLCMV AC4) (Sri Lankan cassava mosaic virus); experiment: EMSA; competed by 10-, 50-, 100-fold unlabelled miR165; settings: tags: GST fusion (pET41a), Ni-NTA purified; label: 5'-32P
T1 chain: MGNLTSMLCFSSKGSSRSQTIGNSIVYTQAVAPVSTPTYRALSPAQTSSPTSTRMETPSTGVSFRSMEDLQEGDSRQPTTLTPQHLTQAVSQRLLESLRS

S-AC4 (SLCMV AC4) [2] = molecular target: T1, S-AC4 (SLCMV AC4); experiment: EMSA; settings: tags: GST fusion (pET41a), Ni-NTA purified; label: 5'-32P
E-AC2 (EACMCV AC2) = molecular target: T2, E-AC2 (EACMCV AC2) (East African cassava mosaic Cameroon …); experiment: EMSA; settings: tags: GST fusion (pET41a), Ni-NTA purified; label: 5'-32P
T2 chain: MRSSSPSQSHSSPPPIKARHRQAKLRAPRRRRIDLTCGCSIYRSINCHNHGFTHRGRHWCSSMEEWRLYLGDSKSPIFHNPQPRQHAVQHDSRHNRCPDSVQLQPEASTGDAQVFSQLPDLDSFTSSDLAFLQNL

E-AC4 (EACMCV AC4) = molecular target: T3, E-AC4 (EACMCV AC4) (East African cassava mosaic Cameroon …); experiment: EMSA; data not shown; settings: tags: pET41a, Ni-NTA purified; label: 5'-32P
T3 chain: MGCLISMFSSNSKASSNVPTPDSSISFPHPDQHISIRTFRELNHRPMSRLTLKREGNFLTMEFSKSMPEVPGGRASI

S-AC4 (SLCMV AC4) [3] = molecular target: T1, S-AC4 (SLCMV AC4); experiment: EMSA; text cites SEQ ID NO:29 (DNA probe); RNA oligo listed as SEQ 38; settings: tags: GST fusion (pET41a), Ni-NTA purified; label: 5'-32P
S-AC4 (SLCMV AC4) [4] = molecular target: T1, S-AC4 (SLCMV AC4); experiment: EMSA; as efficient as unmodified; settings: tags: GST fusion (pET41a), Ni-NTA purified; label: 5'-32P

B1: miR165 (ssRNA)
RNA: UCGGACCAGGCUUCAUCCCCC
Does B1 bind (S-AC4 (SLCMV AC4) [1])?
Result: binds

B2: ta-siRNA siR255::siR255* duplex (dsRNA)
RNA 1: AUGCGAUACAACCUGAAUCUU
RNA 2: GAGAUUCAGGUUGCAUCGCGC
Does B2 bind (S-AC4 (SLCMV AC4) [2])?
Result: binds

B3: DmiR-165 DNA (ssDNA)
DNA: TCGGACCAGGCTTCATCCCCC
Does B3 bind (S-AC4 (SLCMV AC4) [2])?
Result: no binding

B4: pre-miR159 first strand (ssRNA)
RNA: UAAAAAAGGAUUUGGUUAUAUGGAUUGCAUAUCUCAGGAGCUUUAACUUGCCCUGUUAAUGCUUUUACUCUUCUUUGGCUUGAAGGGAGCUCUAC
Does B4 bind (S-AC4 (SLCMV AC4) [2])?
Result: no binding

B5: pre-miR159 duplex (dsRNA)
RNA 1: UAAAAAAGGAUUUGGUUAUAUGGAUUGCAUAUCUCAGGAGCUUUAACUUGCCCUGUUAAUGCUUUUACUCUUCUUUGGCUUGAAGGGAGCUCUAC
RNA 2: GUAGAGCUCCUUAAAGUUCAAACAUGAGUUGAGCAGGGUAAAGAAAAGCUGCUAAGCUAUGGAUCCCAUAAGCCCUAAUCCUUGUAAAG
Does B5 bind (S-AC4 (SLCMV AC4) [2])?
Result: no binding

B6: miR159 (ssRNA)
RNA: UUUGGAUUGAAGGGAGCUCUA
Does B6 bind (S-AC4 (SLCMV AC4) [2])?
Result: binds

Does B6 bind (E-AC2 (EACMCV AC2))?
Result: no binding

Does B6 bind (E-AC4 (EACMCV AC4))?
Result: no binding

B7: ta-siRNA siR255 (ssRNA)
RNA: AUGCGAUACAACCUGAAUCUU
Does B7 bind (S-AC4 (SLCMV AC4) [3])?
Result: binds

B8: lin-4 (ssRNA)
RNA: UCCCUGAGACCUCAAGUGUGA
Does B8 bind (S-AC4 (SLCMV AC4) [2])?
Result: binds

B9: miR159* (ssRNA)
RNA: GAGCUCCUUAAAGUUCAAACA
Does B9 bind (E-AC2 (EACMCV AC2))?
Result: no binding

B10: miR34 (ssRNA)
RNA: AGGCAGUGUGGUUAGCUGGUUG
Does B10 bind (S-AC4 (SLCMV AC4) [2])?
Result: binds

B11: DmiR-165::DmiR-165* DNA duplex (dsDNA)
DNA 1: TCGGACCAGGCTTCATCCCCC
DNA 2: GGGGGATGAAGCCTGGTCCGA
Does B11 bind (S-AC4 (SLCMV AC4) [2])?
Result: no binding

B12: 2'-O-methyl miR165 (ssRNA)
RNA: UCGGACCAGGCUUCAUCCCCC
modifications: 2'-OMe at last (3') nucleotide
Does B12 bind (S-AC4 (SLCMV AC4) [4])?
Result: binds
